Measurements published in patent publication US20240150423A1, “GLP-1 ANALOGUE-MODIFIED DIMERS WITH DIFFERENT CONFIGURATIONS, PREPARATION METHOD THEREOF, AND APPLICATION THEREOF IN TREATMENT OF TYPE II DIABETES” (Nanjing Finepeptide Biopharmaceutical Co.,Ltd, priority 2019, published 2024).
Positions count from the first letter of the chain named. Starred links: 1 amine or outer side, 2 acyl side, 3 side chain; linkers in the order of their positions; H or OH if unused. Groups on a side chain read outwards from the residue. γGlu = O=C(O)[C@H](CCC(=O)[*:2])N[*:1]; oleoyl = alkanoyl with 18 carbons

B1: 2G9 series 70: disulfide-linked homodimer of monomer SEQ ID NO: 70 (peptide)
chain: HAEGTFTSDVSCYLEGQAAK([γGlu-oleoyl])EFIAWLVRGRGHGEGTFTSDVSSYLEGQAAREFIAWLVRGRG
modifications: also: disulfide-linked homodimer, feature at 62: C-terminal
B2: 2G2 series 10: disulfide-linked homodimer of monomer SEQ ID NO: 10 (peptide)
chain 1: HAEGTFTSDVCSYLEGQAAXEFIAWLVRGRG
chain 2: B2 chain 1
modifications: not fully specified; disulfide-linked homodimer; Sequence is synthesized; (20)..(20) Xaa is 26Lys[N-e-(N-a-oleoyl-L-g-glutamyl)]; (31)..(31) N-terminal
B3: 2G2 series 18: disulfide-linked homodimer of monomer SEQ ID NO: 18 (peptide)
chain 1: B2 chain 1 with A2X
chain 2: B2 chain 1 with A2X
modifications: not fully specified; disulfide-linked homodimer; Sequence is synthesized; (2)..(2) Xaa is bAla; (20)..(20) Xaa is 26Lys[N-e-(N-a-oleoyl-L-g-glutamyl)]; (31)..(31) N-terminal
B4: 2G2 series 15: disulfide-linked homodimer of monomer SEQ ID NO: 15 (peptide)
chain 1: B2 chain 1 with A2X
chain 2: B2 chain 1 with A2X
modifications: not fully specified; disulfide-linked homodimer; Sequence is synthesized; (2)..(2) Xaa is bAib; (20)..(20) Xaa is 26Lys[N-e-(N-a-oleoyl-L-g-glutamyl)]; (31)..(31) N-terminal
B5: His-Ala-Glu-Gly-Thr-Phe-Thr-Ser-Asp-Val-Ser-Cys-Tyr-Leu-Glu-Gly-Gln-Ala-Ala-Lys[N-ϵ-(N-α-oleoyl-L-γ-glutamyl)]-Glu-Phe-Ile-Ala-Trp-Leu-Val-Arg-Gly-Arg-Gly-His-Gly-Glu-Gly-Thr-Phe-Thr-Ser-Asp-Val-Ser-S … (peptide)
chain: HAEGTFTSDVSCYLEGQAAK([γGlu-oleoyl])EFIAWLVRGRGHGEGTFTSDVSSYLEGQAAREFIAWLVRGRG-OH

Test system: Normal Kunming (KM) mice
Assay: multiple OGTT (mOGTT): hypoglycemic duration after a single administration
Format: in vivo
Conditions: single injection at the same dose (1.126 nmol), subcutaneous
Source text: • 1. Methods: Normal Kunming (KM) mice (purchased from Guangdong Animal Center) were used for oral glucose tolerance test (OGTT) to obtain the hypoglycemic activity and durability of drug. […] The blood glucose meter and blood glucose test paper were from Bayer […]. The average blood glucose of each group was used as an evaluation standard: When the average blood glucose of experimental group was higher than that of the NaCl control group for two times, the measurement stopped and the hypoglycemic period compared to the blank control group was the effective duration. • 2. Results • 2.1 single OGTTs: after a single administration, the mice were orally administered glucose once and measured the blood glucose from the tail blood at 0, 10, 20, 40, 60 and 120 min. […] The duration of each monomer group was about 1⁄2-1⁄4 of the duration of its corresponding dimer group. […] Therefore, the 2G3 peptide was selected for treating type II diabetes (T2D) in vivo and subsequent experiments.

| Molecule | Hypoglycemic duration | Hypoglycemic (day) (monomeric peptides) |
| --- | --- | --- |
| B1 | 11 days | – |
| B2 | 8 days | – |
| B3 | 9 days | – |
| B4 | 10 days | – |
| B5 | – | 5 (G9 peptide) day |
